This assay deals with NL-Rluc virus. Briefly: Combinectin potency assay: antiviral EC50, NL-Rluc virus in MT-2 cells, luciferase readout. Type of assay: cell-based, HIV-1. The settings on record: Anti-N17 Adnectin - HIV fusion peptide inhibitor Combinectin, Table 4. In a few lines: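 MT-2 cells infected with replication-competent NL-Rluc HIV (nef replaced by Renilla luciferase) at MOI 0.01 for 1 h, then added to threefold-diluted peptides (11 concentrations, triplicate). After 4–5 days, luciferase measured by Dual Luciferase; EC50 relative to no-peptide wells.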

B1: 427 (protein)
chain: MGHHHHHHGVSDVPRDLEVVAATPTSLLISWKYKVHPYRYYRITYGETGGNSPVQEFTVPSVLSTATISGLKPGVDYTITVYAVTYGVNSLPISINYRTEIDGGGGSGGGGSGGGGSGGGGTEYEARIEALIRAAQEQQEKNEAALRELKEWASIWN
modifications: Anti-N17 Adnectin - HIV fusion peptide inhibitor Combinectin
For the molecule B1, the EC50 was 143 nM.

B2: 426 (protein)
chain: MGHHHHHHGGSVSDVPRDLEVVAATPTSLLISWEYKVNAYRYYRITYGETGGNSPVQEFTVPSVLSTATISGLKPGVDYTITVYAVTYGVDSDPISINYRTEIDGGGGSGGGGSGGGGSGGGGSEYEARIEALIRAAQEQQEKNEAALRELYKWAS
modifications: Anti-N17 Adnectin - HIV fusion peptide inhibitor Combinectin
Consider B2, for which the EC50 turned out to be 139 nM.

B3: 425 (protein)
chain: MGHHHHHHGGSVSDVPRDLEVVAATPTSLLISWEYKVNAYRYYRITYGETGGNSPVQEFTVPSVLSTATISGLKPGVDYTITVYAVTYGVDSDPISINYRTEIDGGGGSGGGGSGGGGSGGGGTIAEYAARIEALIRAAQEQQEKNEAALRELYKWAS
modifications: Anti-N17 Adnectin - HIV fusion peptide inhibitor Combinectin
Take B3: the EC50 stood at 523 nM.

Values taken from patent US11155602B2, “Polypeptides targeting HIV fusion” (priority 2015, dated 2021).
